± gives the standard deviation of the averaged measurements.
These sequences were tested on Saccharomyces cerevisiae (assay: protein stability index of tFT-peptide fusion (C-terminal peptide) (PSI (0-1 scale)); higher = more stable (slower turnover)). Settings: genetic background: wild type; temperature: 30 C.
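Also: PSI is a weighted mean of sequencing reads over stability bins, variants kept only with over 10 reads, mCherry proximal and sfGFP distal, peptide attached via GGGS linker.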

Sequence | protein stability index
SPDLTRPPLPPP | 0.693 ± 0.015
SPFPFLLTAPLA | 0.538 ± 0.0094
SPGPPLLLPPPL | 0.688 ± 0.085
SPGRSSTLPPVF | 0.7101 ± 0.00072
SPGRVSRGNASV | 0.645 ± 0.017
SPGSSIFLYFFT | 0.729 ± 0.022
SPHTPDPTTTPH | 0.648 ± 0.097
SPLETLLCTPSI | 0.675 ± 0.019
SPLPPPPHPSPF | 0.505 ± 0.017
SPLRPPSLPAPG | 0.653 ± 0.015
SPLRSCPADPSQ | 0.763 ± 0.082
SPLSLPSIPFGV | 0.672 ± 0.075
SPLTYTAPRCPR | 0.82 ± 0.088
SPLVSSPPPALL | 0.643 ± 0.081
SPPALPRPPRRP | 0.708 ± 0.044
SPPHPRPPTLRT | 0.609 ± 0.013
SPPLSLPFFPRP | 0.641 ± 0.019
SPPPAPVPAPPR | 0.678 ± 0.048
SPPPPRPPSQPS | 0.674 ± 0.021
SPPPPTPPLSPP | 0.669 ± 0.0051
SPPPSSTSTSTS | 0.688 ± 0.061
SPPPTSHPSAPP | 0.638 ± 0.056
SPPSPFAFPLPP | 0.67473 ± 0.00064

Sequence | protein stability index
SPPSPPSPPPLV | 0.745 ± 0.013
SPPSPYPPPLDR | 0.695 ± 0.021
SPPSSFPVFTLL | 0.728 ± 0.05
SPPTPRIPPPLP | 0.663 ± 0.035
SPPTSPAPLPPP | 0.6502 ± 0.0032
SPPTTHPPSSHG | 0.7486 ± 0.0062
SPPWGQGSVSSK | 0.729 ± 0.052
SPQPPHSPLSAR | 0.653 ± 0.024
SPRFLLNCWGRL | 0.821 ± 0.027
SPRGRGARRGRI | 0.705 ± 0.028
SPRLHFPPRHPC | 0.717 ± 0.015
SPRLLPSPTRVA | 0.643 ± 0.059
SPRLSGVPGHAP | 0.663 ± 0.027
SPRPTRPALLPP | 0.708 ± 0.033
SPRRWVSGHPRG | 0.711 ± 0.042
SPRSPACPTPDR | 0.734 ± 0.011
SPRSPPSPPPRP | 0.746 ± 0.045
SPRSPPSTSSPQ | 0.6802 ± 0.001
SPSGCVGSSAQS | 0.68061 ± 0.00045
SPSLAPSPSALL | 0.598 ± 0.018
SPSLPPLSPPNP | 0.699 ± 0.039
SPSPLSHSPLAF | 0.647 ± 0.009
SPSPPLAPPSPS | 0.671 ± 0.0073

Sequence | protein stability index
SPSPPSLLPAPS | 0.74 ± 0.062
SPSQRPLPSISP | 0.718 ± 0.01
SPSSLPPVPPSP | 0.6764 ± 0.0036
SPSSPPPSPPPA | 0.727 ± 0.016
SPSTSIPPLPAS | 0.73 ± 0.016
SPTARRLSGCIS | 0.658 ± 0.086
SPTIRPDESPVQ | 0.6893 ± 0.0067
SPTPHPPPSPPL | 0.728 ± 0.023
SPTPSLPFPALF | 0.737 ± 0.097
SPTRPPSPIISR | 0.7181 ± 0.002
SPVLSPHSRSSF | 0.633 ± 0.087
SPVLSPLSLPPH | 0.6982 ± 0.0042
SPVPIPPSPSRP | 0.687 ± 0.019
SPVRPPLSSLYS | 0.705 ± 0.04
SPVSLPIPYTFL | 0.6891 ± 0.0054
SQAALLIPLFSL | 0.681 ± 0.03
SQFWGCALFIEH | 0.652 ± 0.018
SQGLALFLRPGY | 0.628 ± 0.057
SQSFFDGVLVRV | 0.673 ± 0.059
SRAAGILCVVQI | 0.615 ± 0.084
SRAPPTSLVWGF | 0.678 ± 0.097
SRDIKTDCLRRV | 0.688 ± 0.078
SREKRKEEQTQK | 0.717 ± 0.018

Sequence | protein stability index
SRFGSVSCRPSI | 0.713 ± 0.079
SRFPPDTFFSFL | 0.802 ± 0.14
SRGARRRGGAGR | 0.656 ± 0.056
SRGPSLYLCGVR | 0.63 ± 0.00074
SRIALLSLGAIL | 0.707 ± 0.028
SRIPARCDGKCI | 0.6722 ± 0.0037
SRKEKNEKRSWG | 0.674 ± 0.041
SRLGLLTDGVYA | 0.583 ± 0.025
SRLLLPPRGILP | 0.76 ± 0.15
SRLPSYVSACSF | 0.671 ± 0.011
SRLRPHNSSTPV | 0.716 ± 0.053
SRNLRRLEIRRE | 0.743 ± 0.027
SRPFAILLCAEK | 0.62 ± 0.015
SRPLANYARCSS | 0.639 ± 0.036
SRPSPAMFLFSP | 0.737 ± 0.1
SRRCKAFLCRGY | 0.6663 ± 0.0053
SRRSNMRNMRTT | 0.657 ± 0.081
SRRYLPHRPTSL | 0.732 ± 0.071
SRTAFNRGTTRD | 0.681 ± 0.044
SRVRSPPWTRKF | 0.739 ± 0.1
SRWTFSFYRNLD | 0.683 ± 0.053
SSAALSPPPPRP | 0.724 ± 0.027
SSCTRLSILVWF | 0.52 ± 0.0056

Sequence | protein stability index
SSDFVFGHRFCR | 0.693 ± 0.015
SSEKKKEDGGLG | 0.687 ± 0.069
SSFPAGGWLFFL | 0.682 ± 0.029
SSFVFGLCGGVA | 0.694 ± 0.03
SSGPPRLPHSRR | 0.646 ± 0.046
SSGTLSPLSPVP | 0.655 ± 0.027
SSHSPFSPVLLP | 0.71 ± 0.017
SSHVPPDLPSLH | 0.692 ± 0.031
SSHYSSPAALPY | 0.696 ± 0.019
SSILQFSCFHGN | 0.707 ± 0.036
SSLEGMRSGLCR | 0.69 ± 0.045
SSLFVISIPFRS | 0.639 ± 0.015
SSLLPLLVPLAP | 0.723 ± 0.076
SSLPVPGPFVND | 0.69 ± 0.066
SSPALPPQPPSH | 0.723 ± 0.0054
SSPLLSISPHFP | 0.666 ± 0.042
SSPLPPPSPLPA | 0.678 ± 0.031
SSPLSSRFLLCL | 0.579 ± 0.027
SSPPHLPRPSSP | 0.748 ± 0.024
SSPPPCPLPTYP | 0.624 ± 0.068
SSPPPLPPSPPP | 0.673 ± 0.019
SSPRRRLHSLSL | 0.782 ± 0.04
SSPSPCSRPLLL | 0.7112 ± 0.0011

Sequence | protein stability index
SSPSPPSLLPSL | 0.70987 ± 0.00056
SSPSPPSSSSFP | 0.639 ± 0.028
SSRPTLLSPPPA | 0.706 ± 0.012
SSRRNNIPKRYK | 0.713 ± 0.031
SSSLCSSSLGGS | 0.605 ± 0.069
SSSPTFLLSPFP | 0.721 ± 0.012
SSTPGWVSCDKI | 0.735 ± 0.029
SSTPYRHLLTPH | 0.723 ± 0.013
SSVNYPSFPPLA | 0.706 ± 0.03
SSVQVSMGTAAG | 0.681 ± 0.036
STAFRDSAMRDP | 0.664 ± 0.051
STCPPIFFVSSW | 0.7248 ± 0.0063
STLEKTFRVAKR | 0.694 ± 0.011
STLIARAQRGQA | 0.639 ± 0.073
STLSSPSRRLLP | 0.677 ± 0.03
STPPPPPTFQLS | 0.691 ± 0.047
STPRTPNFPATA | 0.706 ± 0.019
STQIRQILERKC | 0.653 ± 0.051
STRPDLLLLAES | 0.6 ± 0.055
STSPFPAPRRAL | 0.775 ± 0.052
STTILIKKKNDK | 0.684 ± 0.041
STTPKFNILASD | 0.646 ± 0.022
STVKVVIIHFKI | 0.48 ± 0.036

Sequence | protein stability index
STVPDRPRLPVY | 0.674 ± 0.022
SVCVLGPLDGSC | 0.701 ± 0.022
SVEKYDGGKGVV | 0.69 ± 0.0095
SVESAVRALQPT | 0.731 ± 0.042
SVFTLLGSMCLE | 0.664 ± 0.011
SVGGSRSGRGGQ | 0.688 ± 0.011
SVGLLLSPFPPL | 0.6882 ± 0.0063
SVKGRVPLYVSE | 0.658 ± 0.042
SVLVQLLATTKS | 0.675 ± 0.028
SVPLTLLPPLFP | 0.694 ± 0.016
SVPLYRLSSWRN | 0.695 ± 0.021
SVPPPPLARALL | 0.759 ± 0.057
SVPTPPLVPSIS | 0.665 ± 0.07
SVSLPPSLPFLL | 0.764 ± 0.03
SVVGGVVVELEG | 0.65 ± 0.0096
SVVVWRWVCGWS | 0.549 ± 0.014
SVWDGSRVKCST | 0.704 ± 0.04
SVYPSSPTRPPP | 0.683 ± 0.048
SVYVGAQAFCTC | 0.612 ± 0.025
SWCDKGSCLVDE | 0.695 ± 0.07
SWIQLDAWETRS | 0.696 ± 0.041
SWKEAIVAISGS | 0.612 ± 0.058

— the supplement of paper PMC10724198
